Experiment [1] has as its target T1, sVEGF-RI, natural soluble form of the FLT VEGF receptor, expressed by baculovirus in Sf9 insect cells (human, UniProt P17948 27-656).
T1 construct: also called sFLT; sFlt
The experiment can be described thus: 96 well plate competition, immobilized sFLT, tracer [125I]VEGF, competitor unlabeled PlGF. Here is the method:
(§1) Briefly, sVEGF-RI, 50 to […] partially purified by Mono Q chromatography (Pharmacia), was diluted to 10 ml in 25 mM TRIS, pH 7.4, 100 mM NaCl, 20 mM NH₄HCO_{3.} Aliquots ([…]) were absorbed to the surface of a 96 well plate for 18 hours at 4° C., the plates were then washed twice with blocking buffer (DME, 25 mM HEPES, pH 7.5, 0.5% gelatin) and the nonspecific sites were blocked in the same buffer for 6 hours at 4° C. The plate was then washed twice in binding buffer. […] The wells were washed three times with […] of binding buffer, the bound protein was solubilized with […] of 1% SDS, 0.5% BSA and counted in a g counter. The results, shown in FIG. 7, were analyzed by the method of Scatchard [Scatchard, G., (1949) Ann. N.Y. Acad. Sci., 51, pp. 660-672].

Experiment [2] concerns the target T1, sVEGF-RI, natural soluble form of the …. The experiment can be described thus: 96 well plate competition, immobilized sFLT, tracer [125I]PlGF, competitor unlabeled PlGF. Here is the method: as §1
Experiment [3] has the same target. In words: 96 well plate competition, immobilized sFLT; reference is PlGF displacing [125I]PlGF. How it is done: as §1
The target of experiment [4] is T2, Ex-KDR, purified extracellular domain of the KDR VEGF receptor (UniProt P35968 20-764, limits assumed).
T2 construct: extracellular domain; It may be the same construct; also called extracellular region of KDR
In words: covalent crosslinking (BS3) of purified Ex-KDR with [125I]PlGF, SDS/PAGE. How it is done:
The reactions were then crosslinked with 1 mM BS³ at 25° C. for 15 min followed by the addition of boiling Laemmli sample buffer (10). The crosslinked products were analyzed by SDS/7.5% PAGE and the complexes were visualized using a Phosphohnager (Molecular Dynamics, Sunnyvale, Calif.).
The reactions were then crosslinked with 1 mM BS³ at 25° C. for 15 min followed by the addition of boiling Laemmli sample buffer. The crosslinked products were analyzed by SDS/7.5% PAGE and the complexes were visualized using a Phosphohnager (Molecular Dynamics, Sunnyvale, Calif.).

In experiment [5] the target is T1, sVEGF-RI, natural soluble form of the …. The experiment can be described thus: 96 well plate competition, immobilized sFLT, tracer [125I]PlGF, competitor unlabeled VEGF. How it is done: as §1
Experiment [6] has the same target. The experiment can be described thus: 96 well plate assay, sVEGF-RI absorbed to the plate, various amounts of [125I]VEGF, Scatchard analysis. How it is done: as §1

T1 sequence (P17948 other isoform, or with tags, fused parts or gaps): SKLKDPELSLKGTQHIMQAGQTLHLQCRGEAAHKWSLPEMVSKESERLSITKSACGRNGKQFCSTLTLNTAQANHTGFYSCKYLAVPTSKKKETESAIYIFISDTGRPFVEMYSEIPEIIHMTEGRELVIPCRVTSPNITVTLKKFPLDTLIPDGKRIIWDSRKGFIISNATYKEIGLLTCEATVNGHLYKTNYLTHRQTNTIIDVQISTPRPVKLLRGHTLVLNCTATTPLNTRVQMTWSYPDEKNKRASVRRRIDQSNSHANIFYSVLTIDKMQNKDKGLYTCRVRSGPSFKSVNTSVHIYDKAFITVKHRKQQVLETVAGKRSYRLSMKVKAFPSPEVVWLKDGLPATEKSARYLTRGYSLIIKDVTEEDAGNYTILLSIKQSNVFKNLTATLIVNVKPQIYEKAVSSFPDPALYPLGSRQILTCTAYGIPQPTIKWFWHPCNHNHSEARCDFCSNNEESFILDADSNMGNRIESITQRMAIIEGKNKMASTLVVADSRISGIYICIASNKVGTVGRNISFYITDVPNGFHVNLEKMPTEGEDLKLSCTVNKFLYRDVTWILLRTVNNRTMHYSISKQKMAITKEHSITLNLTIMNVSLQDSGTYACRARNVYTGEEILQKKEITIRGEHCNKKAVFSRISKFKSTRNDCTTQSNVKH
T2 sequence (P35968 20-764 limits assumed): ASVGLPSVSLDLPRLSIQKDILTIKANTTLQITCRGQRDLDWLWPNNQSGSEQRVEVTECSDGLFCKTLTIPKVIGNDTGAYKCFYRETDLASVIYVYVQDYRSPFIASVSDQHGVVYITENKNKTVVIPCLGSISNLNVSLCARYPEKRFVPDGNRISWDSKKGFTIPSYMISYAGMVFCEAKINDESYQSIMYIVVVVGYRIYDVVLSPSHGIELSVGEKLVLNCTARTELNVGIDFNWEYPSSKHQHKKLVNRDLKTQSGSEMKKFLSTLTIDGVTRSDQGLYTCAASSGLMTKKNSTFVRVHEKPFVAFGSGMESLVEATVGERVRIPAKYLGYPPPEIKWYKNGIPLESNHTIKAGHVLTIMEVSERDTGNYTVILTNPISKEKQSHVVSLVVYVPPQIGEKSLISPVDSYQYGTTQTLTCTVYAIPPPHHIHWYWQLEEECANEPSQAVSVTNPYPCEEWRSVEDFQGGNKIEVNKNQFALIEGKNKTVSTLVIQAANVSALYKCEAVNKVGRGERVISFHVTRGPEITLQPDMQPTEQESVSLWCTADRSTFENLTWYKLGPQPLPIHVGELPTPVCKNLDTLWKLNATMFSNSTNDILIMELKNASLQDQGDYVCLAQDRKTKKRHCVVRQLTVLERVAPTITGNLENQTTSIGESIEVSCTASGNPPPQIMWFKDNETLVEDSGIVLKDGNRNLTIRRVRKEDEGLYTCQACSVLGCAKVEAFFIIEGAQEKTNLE

B1: recombinant human PlGF (ligand, UniProt P49763-2 19-149, looked up)
chain: LPAVPPQQWALSAGNGSSEVEVVPFQEVWGRSYCRALERLVDVVSEYPSEVEHMFSPSCVSLLRCTGCCGDENLHCVPVETANVTMQLLKIRSGDRPSYVELTFSQHVRCECRPLREKMKPERCGDAVPRR
modifications: 125I label (chloramine T method) in the tracer form
notes: also called PIGF
As for B1, the values for the IC50 in experiment [1] and in experiment [2] were approximately 0.55 nM and approximately 0.11 nM, respectively. Besides, in experiment [3], the “fold higher concentration to displace 50% of [125I]VEGF than of [125I]PlGF” value was approximately 5 fold. In addition, the binding result in experiment [4] is on record as “no binding”.

B2: human recombinant vascular endothelial cell growth factor (VEGF) (ligand, UniProt P15692-4 27-191, looked up)
chain: APMAEGGGQNHHEVVKFMDVYQRSYCHPIETLVDIFQEYPDEIEYIFKPSCVPLMRCGGCCNDEGLECVPTEESNITMQIMRIKPHQGQHIGEMSFLQHNKCECRPKKDRARQENPCGPCSERRKHLFVQDPQTCKCSCKNTDSRCKARQLELNERTCRCDKPRR
modifications: 125I label (chloramine T method) in the tracer form
notes: also called unlabeled VEGF
B2: the IC50 in experiment [5] came to 0.01 nM. Moreover, in experiment [6], the Kd was approximately 0.02 nM.
